Measured values: PMC6561789 (Molecular microbiology, 2019)

How the values were obtained:
AUC = molecular target: the molecule itself; assay: AUC
SEC = molecular target: the molecule itself; assay: SEC

B1: HigA antitoxin (Proteus vulgaris, Rts1 plasmid), wild type (natural protein)
chain: MRQFKVSHPGEMIARDLEDMGVSGRRFAHNIGVTPATVSRLLAGKTALTPSLSIRIAAALGSTPEFWLRLQSNYDLRQLENQIDTSGIVLYGESNEQQQNAQEH
Q: Which “stoichiometry N” value (AUC) does the source give for B1 here?
A: The value was 2.

B2: HigA R40A variant (Proteus vulgaris, Rts1 plasmid) (natural protein)
chain: MRQFKVSHPGEMIARDLEDMGVSGRRFAHNIGVTPATVSALLAGKTALTPSLSIRIAAALGSTPEFWLRLQSNYDLRQLENQIDTSGIVLYGESNEQQQNAQEH
Q: For B2, which “stoichiometry N” value (SEC) is on record?
A: Its value is 2.
